The source of these data is paper PMC5787804, “Communication between N terminus and loop2 tunes Orai activation” (The Journal of Biological Chemistry, 2017).

For this experiment, the target named is T1, Orai3-L2 (aa 111–161, mutation C118G) (human, UniProt Q9BRQ5 111-161, C118G, conjugated to amino-functionalized AFM cantilever tips via a flexible NHS-PEG18-acetal cross-linker).
T1 construct: human Orai3 loop2, aa 111–161; also called Orai3-loop2; source: synthetic peptide (custom-synthesized, >95% purity, Synpeptide)
The experiment in a line: AFM single-molecule force spectroscopy; loop2 peptide tethered to the cantilever tip via a PEG linker, Orai1-NT peptide immobilised on silicon chips; room temperature, HBS buffer (150 mM NaCl, 5 mM Hepes); pulling velocity 50-8000 nm/s; koff from the Bell-Evans single energy barrier model. Conditions: both partners purified.

B1: Orai1-NT 70–91 (peptide)
peptide: SMQALSWRKLYLSRAKLKASSRC
modifications: added C-terminal cysteine for site-specific coupling; immobilized on silicon chips via NHS-PEG27-maleimide linkers
notes: human Orai1 N terminus, aa 70–91; added C-terminal cysteine for site-specific coupling (told in words); also called Orai1 70–91; non-truncated Orai1 NT; source: synthetic peptide (custom-synthesized, >95% purity, DgPeptides)
As to B1, the binding result is “binds”.
